Patent US20200264182A1, “METHOD FOR DETECTING PROSTATE CANCER” (J-OIL MILLS, INC., priority 2017, published 2020)

How the values were obtained:
FAC binding constant = settings: at 25° C.
Experimental: (§1) Details of the FAC method are described in Patent Document 2 filed by some of the present applicants, for example.
(§2) Binding constants (at 25° C.) of PhoSL, SRL, NSL and LSL belonging to the fucose α1→6 specific lectin for various sugar chains are shown in Tables 2 to 5.

[1] = Binding to sugar chains, summary of Tables 2 to 5
Experimental: as §1, §2
The AAL and AOL bind to the fucose α1→6 sugar chains (sugar chains No. 015, 201 to 203, and 401 to 418), as well as to the glycolipid-type sugar chain excluding the fucose α1→6 (sugar chains No. 718, 722, 723, 727, 909, 910 and 933). The LCL and PSL bind to the fucose α1→6 sugar chain, as well as to sugar chain excluding the α1→6 fucose (sugar chains No. 003, and 005 to 014).
Furthermore, the binding constant of the fucose α1→6 specific lectin is not decreased even if a sialic acid is added to the fucose α1→6 sugar chain (sugar chains No. 601 and 602). In addition, the fucose α1→6 specific lectin also strongly binds to the triple-strand (sugar chains No. 407 to 413) and the four-strand (sugar chains No. 418) of the fucose uα1→6 sugar chain.

[2] = FAC binding constant (Table 5 entry); settings: Table 5: sugar chain having no fucose; at 25° C.
Experimental: as §1, §2

[3] = sugar chain having fucose other than α1→6 fucose

B1: LCL: Lens culinaris lectin, affinity for fucose α1→6 but not specific (protein)
chain 1: TETTSFSITKFSPDQKNLIFQGDGYTTKGKLTLTKAVKSTVGRALYSTPIHIWDRDTGNVANFVTSFTFVIDAPSSYNVADEFTFFIAPVDTKPQTGGGYLGVFNSKEYDKTSQTVAVEFDTFYNAAWDPSNKERHIGIDVNSIKSVNTKSWNLQNGERANVVIAFNAATNVLTVTLTYP
chain 2: VTSYTLNEVVPLKDVVPEWVRIGFSATTGAEFAAHEVHSWSFHSELGGTSSS
For B1, the “Binding constant for sugar chain No. 728” value (FAC binding constant; Table 3: sugar chain having fucose other than α1→6 fucose) was less than 1000 M⁻¹, the “Binding constant for sugar chain No. 419” value (FAC binding constant; [3]) was less than 1000 M⁻¹ and the “Binding constant for sugar chain No. 420” value (FAC binding constant; [3]) was less than 1000 M⁻¹. For the same molecule, the “Binding constant for sugar chain No. 718” value (FAC binding constant; [3]) was less than 1000 M⁻¹, the “Binding constant for sugar chain No. 719” value (FAC binding constant; [3]) was less than 1000 M⁻¹ and the “Binding constant for sugar chain No. 720” value (FAC binding constant; [3]) was less than 1000 M⁻¹. The “Binding constant for sugar chain No. 721” value (FAC binding constant; [3]) was less than 1000 M⁻¹, the “Binding constant for sugar chain No. 722” value (FAC binding constant; [3]) was less than 1000 M⁻¹ and the “Binding constant for sugar chain No. 723” value (FAC binding constant; [3]) was less than 1000 M⁻¹. The “Binding constant for sugar chain No. 726” value (FAC binding constant; [3]) was less than 1000 M⁻¹, the “Binding constant for sugar chain No. 727” value (FAC binding constant; [3]) was less than 1000 M⁻¹ and the “Binding constant for sugar chain No. 729” value (FAC binding constant; [3]) was less than 1000 M⁻¹. For the same molecule, the “Binding constant for sugar chain No. 730” value (FAC binding constant; [3]) was less than 1000 M⁻¹, the “Binding constant for sugar chain No. 731” value (FAC binding constant; [3]) was less than 1000 M⁻¹ and the “Binding constant for sugar chain No. 739” value (FAC binding constant; [3]) was less than 1000 M⁻¹. For the same molecule, the “Binding constant for sugar chain No. 909” value (FAC binding constant; [3]) was less than 1000 M⁻¹, the “Binding constant for sugar chain No. 910” value (FAC binding constant; [3]) was less than 1000 M⁻¹ and the “Binding constant for sugar chain No. 931” value (FAC binding constant; [3]) was less than 1000 M⁻¹. The “Binding constant for sugar chain No. 932” value (FAC binding constant; [3]) was less than 1000 M⁻¹, the “Binding constant for sugar chain No. 933” value (FAC binding constant; [3]) was less than 1000 M⁻¹ and the “Binding constant for sugar chain No. 001” value (FAC binding constant; sugar chain having no fucose) was less than 1000 M⁻¹. For the same molecule, the “Binding constant for sugar chain No. 002” value (FAC binding constant; sugar chain having no fucose) was less than 1000 M⁻¹, the “Binding constant for sugar chain No. 003” value (FAC binding constant; sugar chain having no fucose) was 7200 M⁻¹ and the “Binding constant for sugar chain No. 004” value (FAC binding constant; sugar chain having no fucose) was less than 1000 M⁻¹. The “Binding constant for sugar chain No. 005” value (FAC binding constant; sugar chain having no fucose) was less than 1000 M⁻¹, the “Binding constant for sugar chain No. 006” value (FAC binding constant; sugar chain having no fucose) was 14000 M⁻¹ and the “Binding constant for sugar chain No. 007” value (FAC binding constant; sugar chain having no fucose) was less than 1000 M⁻¹. The “Binding constant for sugar chain No. 008” value (FAC binding constant; sugar chain having no fucose) was 18000 M⁻¹, the “Binding constant for sugar chain No. 009” value (FAC binding constant; sugar chain having no fucose) was 18000 M⁻¹ and the “Binding constant for sugar chain No. 010” value (FAC binding constant; sugar chain having no fucose) was 13000 M⁻¹. The “Binding constant for sugar chain No. 011” value (FAC binding constant; sugar chain having no fucose) was 14000 M⁻¹, the “Binding constant for sugar chain No. 012” value (FAC binding constant; sugar chain having no fucose) was 25000 M⁻¹ and the “Binding constant for sugar chain No. 013” value (FAC binding constant; sugar chain having no fucose) was 17000 M⁻¹. For the same molecule, the “Binding constant for sugar chain No. 014” value (FAC binding constant; sugar chain having no fucose) was 17000 M⁻¹, the “Binding constant for sugar chain No. 101” value (FAC binding constant; sugar chain having no fucose) was less than 1000 M⁻¹ and the “Binding constant for sugar chain No. 103” value (FAC binding constant; sugar chain having no fucose) was less than 1000 M⁻¹. For the same molecule, the “Binding constant for sugar chain No. 104” value (FAC binding constant; sugar chain having no fucose) was less than 1000 M⁻¹, the “Binding constant for sugar chain No. 105” value (FAC binding constant; sugar chain having no fucose) was less than 1000 M⁻¹ and the “Binding constant for sugar chain No. 107” value (FAC binding constant; sugar chain having no fucose) was less than 1000 M⁻¹. The “Binding constant for sugar chain No. 108” value (FAC binding constant; sugar chain having no fucose) was less than 1000 M⁻¹, the “Binding constant for sugar chain No. 301” value (FAC binding constant; sugar chain having no fucose) was less than 1000 M⁻¹ and the “Binding constant for sugar chain No. 304” value (FAC binding constant; sugar chain having no fucose) was less than 1000 M⁻¹. For the same molecule, the “Binding constant for sugar chain No. 305” value (FAC binding constant; sugar chain having no fucose) was less than 1000 M⁻¹, the “Binding constant for sugar chain No. 307” value (FAC binding constant; sugar chain having no fucose) was less than 1000 M⁻¹ and the “Binding constant for sugar chain No. 308” value (FAC binding constant; sugar chain having no fucose) was less than 1000 M⁻¹. For the same molecule, the “Binding constant for sugar chain No. 313” value (FAC binding constant; sugar chain having no fucose) was less than 1000 M⁻¹, the “Binding constant for sugar chain No. 314” value (FAC binding constant; sugar chain having no fucose) was less than 1000 M⁻¹ and the “Binding constant for sugar chain No. 323” value (FAC binding constant; sugar chain having no fucose) was less than 1000 M⁻¹. The “Binding constant for sugar chain No. 501” value (FAC binding constant; sugar chain having no fucose) was less than 1000 M⁻¹, the “Binding constant for sugar chain No. 502” value (FAC binding constant; sugar chain having no fucose) was less than 1000 M⁻¹ and the “Binding constant for sugar chain No. 503” value (FAC binding constant; sugar chain having no fucose) was less than 1000 M⁻¹. For the same molecule, the “Binding constant for sugar chain No. 504” value (FAC binding constant; sugar chain having no fucose) was less than 1000 M⁻¹, the “Binding constant for sugar chain No. 701” value (FAC binding constant; sugar chain having no fucose) was less than 1000 M⁻¹ and the “Binding constant for sugar chain No. 702” value (FAC binding constant; sugar chain having no fucose) was less than 1000 M⁻¹. For the same molecule, the “Binding constant for sugar chain No. 703” value (FAC binding constant; sugar chain having no fucose) was less than 1000 M⁻¹, the “Binding constant for sugar chain No. 704” value (FAC binding constant; sugar chain having no fucose) was less than 1000 M⁻¹ and the “Binding constant for sugar chain No. 705” value (FAC binding constant; sugar chain having no fucose) was less than 1000 M⁻¹. The “Binding constant for sugar chain No. 706” value (FAC binding constant; sugar chain having no fucose) was less than 1000 M⁻¹, the “Binding constant for sugar chain No. 707” value (FAC binding constant; sugar chain having no fucose) was less than 1000 M⁻¹ and the “Binding constant for sugar chain No. 708” value (FAC binding constant; sugar chain having no fucose) was less than 1000 M⁻¹. For the same molecule, the “Binding constant for sugar chain No. 709” value (FAC binding constant; sugar chain having no fucose) was less than 1000 M⁻¹, the “Binding constant for sugar chain No. 710” value (FAC binding constant; sugar chain having no fucose) was less than 1000 M⁻¹ and the “Binding constant for sugar chain No. 711” value (FAC binding constant; sugar chain having no fucose) was less than 1000 M⁻¹. For the same molecule, the “Binding constant for sugar chain No. 712” value (FAC binding constant; sugar chain having no fucose) was less than 1000 M⁻¹, the “Binding constant for sugar chain No. 713” value (FAC binding constant; sugar chain having no fucose) was less than 1000 M⁻¹ and the “Binding constant for sugar chain No. 715” value (FAC binding constant; sugar chain having no fucose) was less than 1000 M⁻¹. For the same molecule, the “Binding constant for sugar chain No. 716” value (FAC binding constant; sugar chain having no fucose) was less than 1000 M⁻¹, the “Binding constant for sugar chain No. 717” value (FAC binding constant; sugar chain having no fucose) was less than 1000 M⁻¹ and the “Binding constant for sugar chain No. 724” value (FAC binding constant; sugar chain having no fucose) was less than 1000 M⁻¹. For the same molecule, the “Binding constant for sugar chain No. 725” value (FAC binding constant; sugar chain having no fucose) was less than 1000 M⁻¹, the “Binding constant for sugar chain No. 732” value (FAC binding constant; sugar chain having no fucose) was less than 1000 M⁻¹ and the “Binding constant for sugar chain No. 733” value (FAC binding constant; sugar chain having no fucose) was less than 1000 M⁻¹. The “Binding constant for sugar chain No. 734” value (FAC binding constant; sugar chain having no fucose) was less than 1000 M⁻¹, the “Binding constant for sugar chain No. 735” value (FAC binding constant; sugar chain having no fucose) was less than 1000 M⁻¹ and the “Binding constant for sugar chain No. 736” value (FAC binding constant; sugar chain having no fucose) was less than 1000 M⁻¹. The “Binding constant for sugar chain No. 737” value (FAC binding constant; sugar chain having no fucose) was less than 1000 M⁻¹, the “Binding constant for sugar chain No. 738” value (FAC binding constant; sugar chain having no fucose) was less than 1000 M⁻¹ and the “Binding constant for sugar chain No. 901” value (FAC binding constant; sugar chain having no fucose) was less than 1000 M⁻¹. The “Binding constant for sugar chain No. 902” value (FAC binding constant; sugar chain having no fucose) was less than 1000 M⁻¹, the “Binding constant for sugar chain No. 903” value (FAC binding constant; sugar chain having no fucose) was less than 1000 M⁻¹ and the “Binding constant for sugar chain No. 905” value (FAC binding constant; sugar chain having no fucose) was less than 1000 M⁻¹. The “Binding constant for sugar chain No. 906” value (FAC binding constant; sugar chain having no fucose) was less than 1000 M⁻¹, the “Binding constant for sugar chain No. 907” value (FAC binding constant; sugar chain having no fucose) was less than 1000 M⁻¹ and the “Binding constant for sugar chain No. 015” value (FAC binding constant; sugar chain having α1→6 fucose) was 56000 M⁻¹. For the same molecule, the “Binding constant for sugar chain No. 201” value (FAC binding constant; sugar chain having α1→6 fucose) was 500000 M⁻¹, the “Binding constant for sugar chain No. 202” value (FAC binding constant; sugar chain having α1→6 fucose) was 110000 M⁻¹ and the “Binding constant for sugar chain No. 203” value (FAC binding constant; sugar chain having α1→6 fucose) was 730000 M⁻¹. For the same molecule, the “Binding constant for sugar chain No. 401” value (FAC binding constant; sugar chain having α1→6 fucose) was 42000 M⁻¹, the “Binding constant for sugar chain No. 402” value (FAC binding constant; sugar chain having α1→6 fucose) was 59000 M⁻¹ and the “Binding constant for sugar chain No. 403” value (FAC binding constant; sugar chain having α1→6 fucose) was 99000 M⁻¹. For the same molecule, the “Binding constant for sugar chain No. 404” value (FAC binding constant; sugar chain having α1→6 fucose) was 58000 M⁻¹, the “Binding constant for sugar chain No. 405” value (FAC binding constant; sugar chain having α1→6 fucose) was 47000 M⁻¹ and the “Binding constant for sugar chain No. 406” value (FAC binding constant; sugar chain having α1→6 fucose) was 18000 M⁻¹. For the same molecule, the “Binding constant for sugar chain No. 407” value (FAC binding constant; sugar chain having α1→6 fucose) was 1000 M⁻¹, the “Binding constant for sugar chain No. 410” value (FAC binding constant; sugar chain having α1→6 fucose) was less than 1000 M⁻¹ and the “Binding constant for sugar chain No. 413” value (FAC binding constant; sugar chain having α1→6 fucose) was less than 1000 M⁻¹. The “Binding constant for sugar chain No. 418” value (FAC binding constant; sugar chain having α1→6 fucose) was less than 1000 M⁻¹, the “Binding constant for sugar chain No. 601” value (FAC binding constant; sugar chain having α1→6 fucose) was 30000 M⁻¹ and the “Binding constant for sugar chain No. 602” value (FAC binding constant; sugar chain having α1→6 fucose) was 24000 M⁻¹. The “binding to sugar chain excluding the α1→6 fucose (in words)” value ([1]; sugar chains No. 003, and 005 to 014 for LCL and PSL) was “bind”, the “binding to the fucose α1→6 sugar chains (in words)” value ([1]; sugar chains No. 015, 201 to 203, and 401 to 418) was “bind” and the “Binding constant for sugar chain No. 728” value [2] was less than 1000 M⁻¹.
